The values below come from patent US20240035010, “COMPOSITIONS COMPRISING A VARIANT POLYPEPTIDE AND USES THEREOF” (Arbor Biotechnologies, Inc., published 2024).

The target of data set [1] is T1, variant nuclease E736G combination (P14R, D32R, I61R, E311R, E736G).
T1 chain: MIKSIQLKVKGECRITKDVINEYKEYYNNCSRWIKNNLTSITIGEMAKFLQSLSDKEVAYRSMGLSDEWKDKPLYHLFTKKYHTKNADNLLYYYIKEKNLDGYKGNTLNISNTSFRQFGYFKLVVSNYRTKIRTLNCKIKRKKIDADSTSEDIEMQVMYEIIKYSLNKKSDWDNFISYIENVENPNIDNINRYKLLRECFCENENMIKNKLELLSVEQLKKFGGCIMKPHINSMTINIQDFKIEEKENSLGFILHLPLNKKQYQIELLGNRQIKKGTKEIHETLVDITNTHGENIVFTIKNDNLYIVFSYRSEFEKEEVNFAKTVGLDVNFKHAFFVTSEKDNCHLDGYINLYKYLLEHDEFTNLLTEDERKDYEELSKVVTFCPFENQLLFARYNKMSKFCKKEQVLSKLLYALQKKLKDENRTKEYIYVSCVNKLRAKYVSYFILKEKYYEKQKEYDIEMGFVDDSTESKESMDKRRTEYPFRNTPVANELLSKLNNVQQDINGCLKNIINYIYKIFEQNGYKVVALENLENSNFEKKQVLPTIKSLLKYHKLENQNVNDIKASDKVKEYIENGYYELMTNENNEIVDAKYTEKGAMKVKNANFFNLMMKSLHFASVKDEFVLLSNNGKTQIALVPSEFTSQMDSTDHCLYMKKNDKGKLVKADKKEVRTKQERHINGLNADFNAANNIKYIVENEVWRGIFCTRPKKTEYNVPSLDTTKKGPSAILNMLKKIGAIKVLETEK
In words: cell_activity; PAM 5'-TTTA-3'. Particulars: tags: pcDNA3.1 expression. How it is done: (§1) Approximately 16 hours prior to transfection, 25,000 HEK293T cells in DMEM/10% FBS+Pen/Strep (D10 media) were plated into each well of a 96-well plate. On the day of transfection, the cells were 70-90% confluent. For each well to be transfected, a mixture of Lipofectamine 2000™ and Opti-MEM™ was prepared and incubated at room temperature for 5 minutes (Solution 1). After incubation, the Lipofectamine 2000™:Opti-MEM™ mixture was added to a separate mixture containing nuclease plasmid, RNA guide plasmid, and Opti-MEM™ (Solution 2). In the case of negative controls, the RNA guide plasmid was not included in Solution 2. Solutions 1 and 2 were mixed by pipetting up and down, then incubated at room temperature for 25 minutes. Following incubation, the Solution 1 and 2 mixture was added dropwise to each well of a 96-well plate containing the cells. Approximately 72 hours post transfection, cells were trypsinized by adding TrypLE™ to the center of each well and incubating at 37° C. for approximately 5 minutes. D10 media was then added to each well and mixed to resuspend cells. The resuspended cells were centrifuged at 500 g for 10 minutes to obtain a pellet, and the supernatant was discarded. The cell pellet was then resuspended in QuickExtract™ buffer (Lucigen®), and cells were incubated at 65° C. for 15 minutes, 68° C. for 15 minutes, and 98° C. for 10 minutes.
(§2) This Example describes assessment of indel activity at multiple target sites using the wild-type polypeptide of SEQ ID NO: 3 or variant polypeptides of Table 4. The variant polypeptides were cloned into a pcDNA3.1 backbone (Invitrogen), and the cells were transfected as described in Example 7.
(§3) The percentage of NGS reads containing indels (% indels) were calculated. For each variant polypeptide and target, % indels were averaged across two bioreplicates and two technical replicates. These values were then compared to % indels of the wild-type polypeptide of SEQ ID NO: 3.

Data set [2] deals with T2, variant nuclease T338G combination (P14R, D32R, I61R, E311R, T338G).
T2 chain: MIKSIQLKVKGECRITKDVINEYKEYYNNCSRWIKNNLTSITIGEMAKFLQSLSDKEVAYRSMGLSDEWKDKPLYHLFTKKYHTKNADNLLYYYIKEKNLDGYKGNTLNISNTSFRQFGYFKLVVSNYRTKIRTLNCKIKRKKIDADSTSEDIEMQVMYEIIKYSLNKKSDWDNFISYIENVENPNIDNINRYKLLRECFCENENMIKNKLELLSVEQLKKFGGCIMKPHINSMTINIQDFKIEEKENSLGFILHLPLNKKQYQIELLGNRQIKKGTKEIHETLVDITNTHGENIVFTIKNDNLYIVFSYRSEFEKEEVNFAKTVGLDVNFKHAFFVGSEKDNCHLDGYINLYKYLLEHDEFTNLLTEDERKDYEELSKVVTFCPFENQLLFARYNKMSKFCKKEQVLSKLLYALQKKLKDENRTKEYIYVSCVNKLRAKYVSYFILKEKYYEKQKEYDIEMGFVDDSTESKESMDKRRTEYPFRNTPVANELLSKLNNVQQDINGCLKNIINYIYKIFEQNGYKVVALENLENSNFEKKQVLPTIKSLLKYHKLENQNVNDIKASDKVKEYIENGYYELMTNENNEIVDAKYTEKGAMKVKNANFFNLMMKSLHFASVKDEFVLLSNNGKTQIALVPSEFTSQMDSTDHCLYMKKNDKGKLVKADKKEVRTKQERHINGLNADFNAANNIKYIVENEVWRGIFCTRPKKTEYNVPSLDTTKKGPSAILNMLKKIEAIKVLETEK
As to the kind of experiment: cell_activity; PAM 5'-TTTA-3'. Particulars: tags: pcDNA3.1 expression. As to the method: as §1, §2, §3

B1: VEGFA crRNA ; VEGFA target (ssRNA ; dsDNA)
RNA: CUUGUUGUAUAUGUCCUUUUAUAGGUAUUAAACAACUCCAGACCACCAAUGGGCAC
DNA 1: TCCAGACCACCAATGGGCAC
DNA 2: GTGCCCATTGGTGGTCTGGA
As for B1, the indel activity in data set [1] is 2.65 fold of WT; in data set [2], 2.72 fold of WT.
